Assay results: patent publication US20120164161A1 (AFFITECH RESEARCH, published 2012)

T1: human CC chemokine receptor 4 (CCR4) (human, UniProt P51679 1-360)
T1 sequence (looked up): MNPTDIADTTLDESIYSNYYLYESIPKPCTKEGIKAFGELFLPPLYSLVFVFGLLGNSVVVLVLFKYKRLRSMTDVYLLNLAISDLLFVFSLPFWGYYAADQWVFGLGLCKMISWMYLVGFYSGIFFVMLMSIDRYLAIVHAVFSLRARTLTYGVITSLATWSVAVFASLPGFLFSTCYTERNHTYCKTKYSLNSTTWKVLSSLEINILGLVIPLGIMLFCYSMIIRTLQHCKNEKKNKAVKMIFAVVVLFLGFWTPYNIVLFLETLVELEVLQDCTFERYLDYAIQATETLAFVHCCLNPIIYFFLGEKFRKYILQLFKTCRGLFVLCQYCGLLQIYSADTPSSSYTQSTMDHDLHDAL

B1: KW0761 IgG (antibody, V domains shown)
VH: EVQLVESGGDLVQPGRSLRLSCAASGFIFSNYGMSWVRQAPGKGLEWVATISSASTYSYYPDSVKGRFTISRDNAKNSLYLQMNSLRVEDTALYYCGRHSDGNFAFGYWGQGTLVTVSS
VL: DVLMTQSPLSLPVTPGEPASISCRSSRNIVHINGDTYLEWYLQKPGQSPQLLIYKVSNRFSGVPDRFSGSGSGTDFTLKISRVEAEDVGVYYCFQGSLLPWTFGQGTKVEIK
B2: 208 scFv (scFv, not shown: small tags and cut ends)
scFv: QVQLVQSGAEVKKPGSSVKVSCKASGGTFSSYAMSWVRQAPGQGLEWMGGIIPIFGTVNYAQKFQGRVTMTRDTSTSTVYMELSSLRSDDTAVYYCARRGGSYFDYWGQGTLVTVSSKLSGSASAPKLEEGEFSEARVSYVLTQPPSASGTPGQSVTISCSGSTSNIGSHYVFWYQQLPGTAPRLLIYRNHQRPSGVPDRLSGSKSGTSASLAISGLRSEDEADYYCAVWDAKYRGWVFGGGTKLTVL
B3: 501 scFv (scFv, not shown: small tags and cut ends)
scFv: QVQLVQSGAEVKKPGSSVKVSCKASEGTFSSYAMSWVRQAPGQGLEWMGGIIPIFGTVNYAQKFQGRVTMTRDTSTSTVYMELSSLRSDDTAVYYCARRRGAKFDYWGQGTLVTVSSKLSGSASAPKLEEGEFSEARVSYVLTQQPSASGTPGQSVTISCSGSTSNIGSHYVVWYQQLPGTAPRLLIYRNHQRPSGVPDRLSGSKSGTSASLAIGGLRSEDEADYYCAVWDDTLSGWVFGGGTKLTVL
notes: Expressed in TG1 bacteria; also called scFv 501; antibody 501 (single chain form)
B4: 308 scFv (scFv, not shown: small tags and cut ends)
scFv: QVQLVQSGAEVKKPGSSVKVSCKASGGTFSSYAMSWVRQAPGQGLEWMGGIIPIFGTVNYAQKFQGRVTMTRDTSTSTVYMELSSLRPDDTAVYYCARRGGSYFDYWGQGTLVTVSSKLSGSASAPKLEEGEFSEARVSYVLTQPPSASGTPGQSVTISCSGSTSNIGSHYVFWYQQLPGTAPRLLIYRNHQRPSGVPDRLSGSKSGTSASLAISGLRSEDEADYYCAVWDAKYRGWVFGGGTKLTVL
B5: 803 scFv (scFv, not shown: small tags and cut ends)
scFv: QVQLVQSGAEVKKPGSSVKVSCKASGGTFSSYAISWVRQAPGQGLEWMGGIIPIFGTANYAQKFQGRVTMTRDTSTSTVYMELSSLRSEDTAVYYCARRRGAKFDYWGQGTLVTVSSKLSGSASAPKLEEGEFSEARVSYVLTQPPSASGTPGQSVTISCSGSTSNIGSHYVVWYQQLPGTAPRLLIYRNHQRPSGVPDRLSGSKSGTSASLAIGGLRSEDEADYYCAVWDDTLSGWVFGGGTKLTVL
notes: Expressed in TG1 bacteria; also called scFv 803; antibody 803 (single chain form)
B6: 503 scFv (scFv, not shown: small tags and cut ends)
scFv: QVQLVQSGAEVKKPGSSVKVSCKASEGTFSSYAMSWVRQAPGQGLEWMGGIIPIFGTVNYAQKFQGRVTMTRDTSTSTVYMELSSLRSDDTAVYYCARRRGAKFDYWGQGTLVTVSSKLSGSASAPKLEEGEFSEARVSYVLTQPPSASGTPGQSVTISCSGSTSNIGSHYVVWYQQLPGTAPRLLIYRNHQRPSGVPDRLSGSKSGTSASLAIGGLRSEDEADYYCAVWDDTLSGWVFGGGTKLTVL
notes: Expressed in TG1 bacteria
B7: 406 scFv (scFv, not shown: small tags and cut ends)
scFv: QVQLVQSGAEVKKPGSSVKVSCKASEGTFSSYAMSWVRQAPGQGLEWMGGIIPIFGTVNYAQKFQGRVTMTRDTSTSTVYMELSSLRSDDTAVYYCARRGGSYFDYWGQGTLVTVSSKLSGSASAPKLEEGEFSEARVSYVLTQPPSASGTPGQSVTISCSGSTSNIGSHYVSWYQQLPGTAPRLLIYRNHQRPSGVPDRLSGSKSGTSASLAISGLRSEDEADYYCAVWDAKYRGWVFGGGTKLTVL
notes: Expressed in TG1 bacteria
B8: 306 scFv (scFv, not shown: small tags and cut ends)
scFv: QVQLVQSGAEVKKPGSSVKVSCKASGGTFSSYAMSWVRQAPGQGLEWMGGIIPIFGTVNYAQKFQGRVTMTRDTSTSTVYMELSSLRPDDTAVYYCARRGGSYFDYWGQGTLVTVSSKLSGSASAPKLEEGEFSEARVSYVLTQPPSASGTPGQSVTISCSGSTSNIGSHYVSWYQQLPGTAPRLLIYRNHQRPSGVPDRLSGSKSGTSASLAISGLRSEDEADYYCAVWDAKYRGWVFGGGTKLTVL
B9: 601 scFv (scFv, not shown: small tags and cut ends)
scFv: QVQLVQSGAEVKKPGSSVKVSCKASGGTFSSYAMSWVRQAPGQGLEWMGGIIPIFGTVNYAQKFQGRVTMTRDTSTSTVYMELSSLRSDDTAVYYCARRRGAKFDYWGQGTLVTVSSKLSGSASAPKLEEGEFSEARVSYVLTQQPSASGTPGQSVTISCSGSTSNIGSHYVVWYQQLPGTAPRLLIYRNHQRPSGVPDRLSGSKSGTSASLAIGGLRSEDEADYYCAVWDDTLSGWVFGGGTKLTV

Assays:
[1] = target: T1, human CC chemokine receptor 4 (CCR4); experiment: cell-based or functional assay
[2] = target: T1, human CC chemokine receptor 4 (CCR4); experiment: cell-based or functional assay; remark: listed apart in the source
[3] = target: T1, human CC chemokine receptor 4 (CCR4); experiment: competition in flow cytometry on CCRF-CEM cells: scFv titrated against 50 nM Alexa647-labelled MDC-SNAP; remaining MDC-SNAP signal (Alexa 647)
Protocol: To determine whether the anti-CCR4 antibodies from Example 1 interfere with the binding of CCR4 ligands to the receptor, competition experiments were performed. […] The SNAP-tag is derived from the 20 kDa DNA repair protein 06-alkylguanine-DNA alkyltransferase.
The CCR4+ CCRF-CEM-cells were harvested from culture flasks, washed 2 times with RPMI-1640 culture medium and aliquot 1×10^5 cells per well into V-shaped 96-well plates (Greiner Bio-One, Frickenhausen, Germany). Cells were centrifuged at 500×g for 5 minutes and the supernatant was aspirated.

| Binder | IC50 of inhibition of TARC-mediated Ca-Flux in CCRF-CEM cells [2] | IC50 (read off the curve) [3] | further results |
| --- | --- | --- | --- |
| B1 |  |  | ADCC on CCRF-CEM cells with human PBMCs, EC50 [1]: 315 pM; ADCC on CCRF-CEM cells, Max. Killing (%; nM IgG) [1]: 69.8 % (at 1.4 nM IgG); ADCC on L-428 cells with human PBMCs, EC50 [1]: 57 pM; ADCC on L-428 cells, Max. Killing (%; nM IgG) [1]: 84 % (at 7 nM IgG) |
| B2 | 1.9 pM |  |  |
| B3 | 1 pM | ~300 pM |  |
| B4 | 3 pM |  |  |
| B5 | 10 pM | ~200 pM |  |
| B6 | 1.2 pM | ~300 pM |  |
| B7 | 1 pM | ~100 pM |  |
| B8 | 1.2 pM |  |  |
| B9 | 3 pM |  |  |
